Reference: paper PMC11272584 (Nature Metabolism, 2024)

Experiments:
GIPR variants (groups) [1] = assay: cAMP accumulation; format: cell-based, human; conditions: for In vitro groups (cAMP): cAMP part of the in vitro group; for percentage_camp: cAMP production compared with WT; for Beta, cAMP: in vitro cAMP production per GIPR variant
GIPR variants (groups) [2] = assay: β-arrestin 2 recruitment (BRET); conditions: for In vitro groups (β-arrestin): arr part of the in vitro group; for Beta, Barr: in vitro β-arrestin recruitment per GIPR variant;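 on all read-outs here: BRET readout of β-arrestin 2 recruitment in transiently transfected HEK293 cells expressing WT GIPR or a GIPR variant plus GPCR kinase 2, Rluc8 donor and citrine acceptor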
Protocol: Both cell lines were cultured at 5% CO2 at 37 °C in Roswell Park Memorial Institute GlutaMAX-I supplemented with 10% fetal bovine serum, 180 units ml^−1 penicillin, and 45 g ml^−1 streptomycin. […] The polyethyleneimine (PEI) transfection method was used for the β-arrestin 2 recruitment assays[50], endosomal signalling and basal receptor localization assays, while the lipofectamine transfection method was used for the internalization assay.
Measurement of β-arrestin 2 recruitment was performed with a BRET assay. Two days before the assay, the HEK293 cells were transiently transfected with either WT GIPR or the GIPR variants together with the donor Rluc8-Arrestin-3-Sp1, the acceptor mem-linker-citrine-SH3 and the GPCR kinase 2 to facilitate β-arrestin 2 recruitment. On assay day, the cells were washed with PBS and resuspended in PBS supplemented with 5 mmol l^−1 glucose. Subsequently, 85 µl of the cell suspension was transferred to a white 96-well plate and 10 µl of 50 µM coelenterazine-h was added.

GIPR M67R = molecular target: T1, GIPR M67R (Homo sapiens, UniProt P48546, M67R); assay: cAMP accumulation; format: cell-based
T1 construct: host or cells: HEK293
T1 sequence (P48546 22-466 M67R): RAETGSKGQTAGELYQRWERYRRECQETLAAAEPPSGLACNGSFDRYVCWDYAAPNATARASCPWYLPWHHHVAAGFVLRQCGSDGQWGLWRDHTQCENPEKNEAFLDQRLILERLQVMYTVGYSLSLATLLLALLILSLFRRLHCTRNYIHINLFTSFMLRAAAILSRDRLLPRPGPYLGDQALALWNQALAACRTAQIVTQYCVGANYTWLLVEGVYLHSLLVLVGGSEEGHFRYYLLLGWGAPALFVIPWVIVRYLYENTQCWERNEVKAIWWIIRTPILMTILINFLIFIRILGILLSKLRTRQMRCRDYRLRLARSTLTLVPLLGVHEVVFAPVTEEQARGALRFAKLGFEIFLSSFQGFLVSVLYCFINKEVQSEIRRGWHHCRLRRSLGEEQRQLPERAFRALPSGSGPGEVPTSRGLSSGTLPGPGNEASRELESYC
Protocol: (§1) HEK293 (CRL-1573, American Type Culture Collection) and β-arrestin 1/2 knockout cells, generated from HEK293A[48], were used for cAMP measurement, homologues competition binding and β-arrestin 2 recruitment. […] Both cell lines were cultured at 5% CO2 at 37 °C in Roswell Park Memorial Institute GlutaMAX-I supplemented with 10% fetal bovine serum, 180 units ml^−1 penicillin, and 45 g ml^−1 streptomycin. For the cAMP and binding experiments, cells were transfected with the calcium phosphate precipitation method[49].
(§2) cAMP production was measured with the DiscoverX Hithunter cAMP assay according to the manufacturer’s protocol (DiscoverX). […] On the day of the assay, the cells were washed twice with HEPES-buffered saline (HBS) and incubated with HBS and 1 mM 3-isobutyl-1-methylxanthine for 30 min at 37 °C. […] After the incubation, the assay medium was removed from the plate and the cells were washed with 30 µl PBS and treated with 40 µl enzyme donor–lysis buffer–chemiluminescent reagents and 10 µl cAMP antibodies for 60 min before 40 µl enzyme acceptor solution added. After a 3-h incubation on a shaking table in the dark, the cAMP accumulation was measured based on luminescence with a Perkin Elmer EnVision 2104 Multilabel Microplate Reader. […]

GIPR Y73H = molecular target: T2, GIPR Y73H (Homo sapiens, UniProt P48546, Y73H); assay: cAMP accumulation; format: cell-based
T2 construct: host or cells: HEK293
T2 sequence (P48546 22-466 Y73H): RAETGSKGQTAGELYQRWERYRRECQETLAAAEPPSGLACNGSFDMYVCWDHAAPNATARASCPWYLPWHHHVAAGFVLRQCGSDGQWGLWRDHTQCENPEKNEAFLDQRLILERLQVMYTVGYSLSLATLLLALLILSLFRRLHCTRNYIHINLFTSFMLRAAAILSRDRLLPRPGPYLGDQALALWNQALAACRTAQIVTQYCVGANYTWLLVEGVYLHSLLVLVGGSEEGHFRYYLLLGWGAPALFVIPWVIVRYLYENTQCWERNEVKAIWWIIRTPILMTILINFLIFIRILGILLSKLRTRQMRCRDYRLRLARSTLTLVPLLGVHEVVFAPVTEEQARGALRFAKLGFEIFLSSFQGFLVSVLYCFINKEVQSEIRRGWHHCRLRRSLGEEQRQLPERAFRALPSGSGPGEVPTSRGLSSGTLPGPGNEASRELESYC
Protocol: as §1, §2

GIPR V99I = molecular target: T3, GIPR V99I (Homo sapiens, UniProt P48546, V99I); assay: cAMP accumulation; format: cell-based
T3 construct: host or cells: HEK293
T3 sequence (P48546 22-466 V99I): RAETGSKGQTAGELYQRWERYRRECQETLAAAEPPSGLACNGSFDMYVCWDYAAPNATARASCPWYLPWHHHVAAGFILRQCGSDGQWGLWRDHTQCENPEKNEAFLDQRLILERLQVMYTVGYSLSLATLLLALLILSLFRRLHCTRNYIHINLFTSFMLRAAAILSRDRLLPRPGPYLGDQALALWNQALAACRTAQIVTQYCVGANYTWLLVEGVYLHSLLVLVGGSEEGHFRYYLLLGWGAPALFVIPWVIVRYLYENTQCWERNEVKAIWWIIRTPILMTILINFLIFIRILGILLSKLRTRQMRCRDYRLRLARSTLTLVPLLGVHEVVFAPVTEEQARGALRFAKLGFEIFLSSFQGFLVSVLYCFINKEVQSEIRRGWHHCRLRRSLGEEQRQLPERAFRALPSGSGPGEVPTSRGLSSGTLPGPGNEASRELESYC
Protocol: (§3) HEK293 (CRL-1573, American Type Culture Collection) and β-arrestin 1/2 knockout cells, generated from HEK293A[48], were used for cAMP measurement, homologues competition binding and β-arrestin 2 recruitment. For the internalization assay, endosomal signalling and basal receptor localization experiments, HEK293A (R70507, Thermo Fisher) cells were used. Both cell lines were cultured at 5% CO2 at 37 °C in Roswell Park Memorial Institute GlutaMAX-I supplemented with 10% fetal bovine serum, 180 units ml^−1 penicillin, and 45 g ml^−1 streptomycin. For the cAMP and binding experiments, cells were transfected with the calcium phosphate precipitation method[49]. The polyethyleneimine (PEI) transfection method was used for the β-arrestin 2 recruitment assays[50], endosomal signalling and basal receptor localization assays, while the lipofectamine transfection method was used for the internalization assay.
(§4) cAMP production was measured with the DiscoverX Hithunter cAMP assay according to the manufacturer’s protocol (DiscoverX). […] On the day of the assay, the cells were washed twice with HEPES-buffered saline (HBS) and incubated with HBS and 1 mM 3-isobutyl-1-methylxanthine for 30 min at 37 °C. […] After a 3-h incubation on a shaking table in the dark, the cAMP accumulation was measured based on luminescence with a Perkin Elmer EnVision 2104 Multilabel Microplate Reader. […]

GIPR R101H = molecular target: T4, GIPR R101H (Homo sapiens, UniProt P48546, R101H); assay: cAMP accumulation; format: cell-based
T4 construct: host or cells: HEK293
T4 sequence (P48546 22-466 R101H): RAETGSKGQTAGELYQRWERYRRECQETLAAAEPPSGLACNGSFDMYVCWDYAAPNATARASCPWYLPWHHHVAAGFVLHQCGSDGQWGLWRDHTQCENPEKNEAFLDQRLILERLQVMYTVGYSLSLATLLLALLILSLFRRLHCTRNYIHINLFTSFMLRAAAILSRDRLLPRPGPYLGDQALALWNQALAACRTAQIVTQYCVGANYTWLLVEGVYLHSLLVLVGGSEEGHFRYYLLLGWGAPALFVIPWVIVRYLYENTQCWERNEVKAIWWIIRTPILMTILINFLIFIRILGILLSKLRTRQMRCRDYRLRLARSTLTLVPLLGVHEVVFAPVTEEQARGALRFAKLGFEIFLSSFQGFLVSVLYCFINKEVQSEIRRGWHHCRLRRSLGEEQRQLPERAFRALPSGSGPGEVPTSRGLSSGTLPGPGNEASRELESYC
Protocol: as §3, §4

GIPR T116R = molecular target: T5, GIPR T116R (Homo sapiens, UniProt P48546, T116R); assay: cAMP accumulation; format: cell-based
T5 construct: host or cells: HEK293
T5 sequence (P48546 22-466 T116R): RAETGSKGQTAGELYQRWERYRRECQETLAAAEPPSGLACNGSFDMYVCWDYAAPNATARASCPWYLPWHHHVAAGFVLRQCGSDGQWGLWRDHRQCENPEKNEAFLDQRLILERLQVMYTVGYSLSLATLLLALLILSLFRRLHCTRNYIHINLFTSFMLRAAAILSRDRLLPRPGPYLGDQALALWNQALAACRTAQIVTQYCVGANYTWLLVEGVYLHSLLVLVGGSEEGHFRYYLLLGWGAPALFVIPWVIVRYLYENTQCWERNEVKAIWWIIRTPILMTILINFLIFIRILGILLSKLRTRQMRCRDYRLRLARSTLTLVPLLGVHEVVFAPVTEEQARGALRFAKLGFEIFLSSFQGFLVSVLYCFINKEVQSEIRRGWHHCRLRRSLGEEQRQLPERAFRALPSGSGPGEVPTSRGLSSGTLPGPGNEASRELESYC
Protocol: as §3, §4

B1: M67R (protein)
chain: RAETGSKGQTAGELYQRWERYRRECQETLAAAEPPSGLACNGSFDRYVCWDYAAPNATARASCPWYLPWHHHVAAGFVLRQCGSDGQWGLWRDHTQCENPEKNEAFLDQRLILERLQVMYTVGYSLSLATLLLALLILSLFRRLHCTRNYIHINLFTSFMLRAAAILSRDRLLPRPGPYLGDQALALWNQALAACRTAQIVTQYCVGANYTWLLVEGVYLHSLLVLVGGSEEGHFRYYLLLGWGAPALFVIPWVIVRYLYENTQCWERNEVKAIWWIIRTPILMTILINFLIFIRILGILLSKLRTRQMRCRDYRLRLARSTLTLVPLLGVHEVVFAPVTEEQARGALRFAKLGFEIFLSSFQGFLVSVLYCFINKEVQSEIRRGWHHCRLRRSLGEEQRQLPERAFRALPSGSGPGEVPTSRGLSSGTLPGPGNEASRELESYC
In vitro groups (cAMP) (GIPR variants (groups) [1]): LoF_camp
percentage_camp (GIPR variants (groups) [1]): <50% cAMP
Beta, cAMP (GIPR variants (groups) [1]): 0.1344
In vitro groups (β-arrestin) (GIPR variants (groups) [2]): WT-like_arr
Beta, Barr (GIPR variants (groups) [2]): 1.452
Efficacy at 100pmol (cAMP) (GIPR M67R): 0.1344

B2: Y73H (protein)
chain: RAETGSKGQTAGELYQRWERYRRECQETLAAAEPPSGLACNGSFDMYVCWDHAAPNATARASCPWYLPWHHHVAAGFVLRQCGSDGQWGLWRDHTQCENPEKNEAFLDQRLILERLQVMYTVGYSLSLATLLLALLILSLFRRLHCTRNYIHINLFTSFMLRAAAILSRDRLLPRPGPYLGDQALALWNQALAACRTAQIVTQYCVGANYTWLLVEGVYLHSLLVLVGGSEEGHFRYYLLLGWGAPALFVIPWVIVRYLYENTQCWERNEVKAIWWIIRTPILMTILINFLIFIRILGILLSKLRTRQMRCRDYRLRLARSTLTLVPLLGVHEVVFAPVTEEQARGALRFAKLGFEIFLSSFQGFLVSVLYCFINKEVQSEIRRGWHHCRLRRSLGEEQRQLPERAFRALPSGSGPGEVPTSRGLSSGTLPGPGNEASRELESYC
In vitro groups (cAMP) (GIPR variants (groups) [1]): LoF_camp
percentage_camp (GIPR variants (groups) [1]): <50% cAMP
Beta, cAMP (GIPR variants (groups) [1]): 0.06277
Efficacy at 100pmol (cAMP) (GIPR Y73H): 0.06277
In vitro groups (β-arrestin) (GIPR variants (groups) [2]): WT-like_arr
Beta, Barr (GIPR variants (groups) [2]): 1.323

B3: V99I (protein)
chain: RAETGSKGQTAGELYQRWERYRRECQETLAAAEPPSGLACNGSFDMYVCWDYAAPNATARASCPWYLPWHHHVAAGFILRQCGSDGQWGLWRDHTQCENPEKNEAFLDQRLILERLQVMYTVGYSLSLATLLLALLILSLFRRLHCTRNYIHINLFTSFMLRAAAILSRDRLLPRPGPYLGDQALALWNQALAACRTAQIVTQYCVGANYTWLLVEGVYLHSLLVLVGGSEEGHFRYYLLLGWGAPALFVIPWVIVRYLYENTQCWERNEVKAIWWIIRTPILMTILINFLIFIRILGILLSKLRTRQMRCRDYRLRLARSTLTLVPLLGVHEVVFAPVTEEQARGALRFAKLGFEIFLSSFQGFLVSVLYCFINKEVQSEIRRGWHHCRLRRSLGEEQRQLPERAFRALPSGSGPGEVPTSRGLSSGTLPGPGNEASRELESYC
In vitro groups (cAMP) (GIPR variants (groups) [1]): LoF_camp
percentage_camp (GIPR variants (groups) [1]): <50% cAMP
Beta, cAMP (GIPR variants (groups) [1]): 0.04155
Efficacy at 100pmol (cAMP) (GIPR V99I): 0.04155
In vitro groups (β-arrestin) (GIPR variants (groups) [2]): WT-like_arr
Beta, Barr (GIPR variants (groups) [2]): 0.6225

B4: R101H (protein)
chain: RAETGSKGQTAGELYQRWERYRRECQETLAAAEPPSGLACNGSFDMYVCWDYAAPNATARASCPWYLPWHHHVAAGFVLHQCGSDGQWGLWRDHTQCENPEKNEAFLDQRLILERLQVMYTVGYSLSLATLLLALLILSLFRRLHCTRNYIHINLFTSFMLRAAAILSRDRLLPRPGPYLGDQALALWNQALAACRTAQIVTQYCVGANYTWLLVEGVYLHSLLVLVGGSEEGHFRYYLLLGWGAPALFVIPWVIVRYLYENTQCWERNEVKAIWWIIRTPILMTILINFLIFIRILGILLSKLRTRQMRCRDYRLRLARSTLTLVPLLGVHEVVFAPVTEEQARGALRFAKLGFEIFLSSFQGFLVSVLYCFINKEVQSEIRRGWHHCRLRRSLGEEQRQLPERAFRALPSGSGPGEVPTSRGLSSGTLPGPGNEASRELESYC
Efficacy at 100pmol (cAMP) (GIPR R101H): 0
In vitro groups (cAMP) (GIPR variants (groups) [1]): LoF_camp
percentage_camp (GIPR variants (groups) [1]): <50% cAMP
Beta, cAMP (GIPR variants (groups) [1]): 0
In vitro groups (β-arrestin) (GIPR variants (groups) [2]): LoF_arr
Beta, Barr (GIPR variants (groups) [2]): 0

B5: T116R (protein)
chain: RAETGSKGQTAGELYQRWERYRRECQETLAAAEPPSGLACNGSFDMYVCWDYAAPNATARASCPWYLPWHHHVAAGFVLRQCGSDGQWGLWRDHRQCENPEKNEAFLDQRLILERLQVMYTVGYSLSLATLLLALLILSLFRRLHCTRNYIHINLFTSFMLRAAAILSRDRLLPRPGPYLGDQALALWNQALAACRTAQIVTQYCVGANYTWLLVEGVYLHSLLVLVGGSEEGHFRYYLLLGWGAPALFVIPWVIVRYLYENTQCWERNEVKAIWWIIRTPILMTILINFLIFIRILGILLSKLRTRQMRCRDYRLRLARSTLTLVPLLGVHEVVFAPVTEEQARGALRFAKLGFEIFLSSFQGFLVSVLYCFINKEVQSEIRRGWHHCRLRRSLGEEQRQLPERAFRALPSGSGPGEVPTSRGLSSGTLPGPGNEASRELESYC
In vitro groups (cAMP) (GIPR variants (groups) [1]): LoF_camp
percentage_camp (GIPR variants (groups) [1]): <50% cAMP
Beta, cAMP (GIPR variants (groups) [1]): 0
In vitro groups (β-arrestin) (GIPR variants (groups) [2]): WT-like_arr
Beta, Barr (GIPR variants (groups) [2]): 0.6218
Efficacy at 100pmol (cAMP) (GIPR T116R): 0.03526
